Laboratory results from the DeepSol protein solubility set.

Experiment: soluble on expression in E. coli; label from the status in PepcDB or PDB records

Soluble on expression in E. coli, soluble:
MQHHGVTKCNITCSKMTSKIPVALLIHYQQNQASCGKRAIILETRQHRLFCADPKEQWVKDAMQHLDRQAAALTRNG
MSLRHDFVFSGVIMLELNAKTTALVVIDLQEGILPFAGGPHTADEVVNRAGKLAAKFRASGQPVFLVRVGWSADYAEALKQPVDAPSPAKVLPENWWQHPAALGATDSDIEIIKRQWGAFYGTDLELQLRRRGIDTIVLCGISTNIGVESTARNAWELGFNLVIAEDACSAASAEQHNNSINHIYPRIARVRSVEEILNALEGGSHHHHHH
MAIWQGASRRLSTGAKVWRAAKKHKREMGRPAAETQVSDKIKRKIVRCRGANLKVKLEKTNYANVFDQANKVCKKVVVTNVIDNKANKHYIRRNVMTKGAIIETEMGKAKVTSRPGQDGVVNAILLTELEHHHHHH
MPTNVTAEYLAAEEEYRNAKTIPEKIRALEKMYALVPKHKGTEKLRLQIKRRLAELRRELEKQRQQRKGGGYSLAVKKEGAAQIVLVGLPNVGKSELLRALTGVDVESADYPFTTTEPVPAMMNYKDVQIQLVEVPGLLEGAALGKGMGPQLLAVIRNADAIAIVIDLSEDPIKQMEILLREFERAGIKVNKRRPRVEIRKTPSGGIVINGAENIKGDLSEVMRMLREEKIHSAEITVKEPVTLEEFADALDDSLVWKKAIIIANKGDSPGSKENYHKLINKYGEKFKIVPVSAKKRINLEAVKEAIYDVAEIIRVFTKSPGEEPAYPPIALKRGATVMDVAERIHKDLVKNFRYARVWGKSVKFPGQRVGPDHVLEDGDIVEIHAK
MSLKHVVVIGAVALGPKAACRFKRLDPEAHVTMIDQASRISYGGCGIPYYVSGEVSNIESLQATPYNVVRDPEFFRINKDVEALVETRAHAIDRAAHTVEIENLRTGERRTLKYDKLVLALGSKANRPPVEGMDLAGVTPVTNLDEAEFVQHAISAGEVSKAVIVGGGFIGLEMAVSLADMWGIDTTVVELADQIMPGFTSKSLSQMLRHDLEKNDVVVHTGEKVVRLEGENGKVARVITDKRTLDADLVILAAGVSPNTQLARDAGLELDPRGAIIVDTRMRTSDPDIFAGGDCVTIPNLVTGKPGFFPLGSMANRQGRVIGTNLADGDATFPGAVGSWAVKLFEGSASGAGLTVEGALREGYDAVNVHVEQFDRAHFYPEKTIMTLQLVVDRPTRRVLGIQGFSTLGDALTARINAVATMLASKPTVEDISNAEVVYSPPFASAMDIVNVAGNVADNVLAGRCRLVGTEEFVQLWEGRKDADICFVDTRLAANAVPLVEKYGDEWINIPEEELAARIDEIPRDKTVMLVCNTGLRSFESQLILDRLGLTNTKSVAGGMVAIHKIGGDEGHHHHHH
MAHHHHHHMSKKEAISTPRKSKKAEVVIEGCVTIGSKQLLPSALDESRREQLSKQFDDIIEAHVAIDGGIADPVAAKIKELPTLSVGFIARAMGLNLSNDQVLSLVEMVEERDTVSRGCVPVGPLKEIIVGALMSGVITRQDSVAPTSNRKKRHSVSENRPLMHVSRDSEELIYAAFRTLDVGNRGYMEAEELRHLFRSGLEPFTDEEMENMIAAAADPQNGLIFYEDFVDVLANE
MSSDVAGVKKSSSSSSSTSSPFMFSMLLMFSRSISSTIKISANRILLCCTSSFSTTSGFFKIESNRLTSRSSSGIFSRTACNRSCGNCFSISAVLSFCVAPLCCKSTGRFSSAIYLLIFRSTR
AEVNDPRVGFVAVVTFPVDGPATQHKLVELATGGVQEWIREVPGFLSATYHASTDGTAVVNYAQWESEQAYRVNFGADPRSAELREALSSLPGLMGPPKAVFMTPRGAILPS
MMKKDYRTQVIEDLKKQDKAKKVLRDEQLLEELIQLEAYQKAHVIATYLAFPFEFDTSLLIEQAQRDNKSIVVPKTYPQGKMIFVVYDEADLQITKFGLKEPRSEEALEKSAIDLIHVPGLAFNNEGYRIGFGAGYYDQYLADFQGDTVSTIYSFQKFTFEPSFFDIPVKEVLVSGDLLEHHHHHH
MLTGLKIAVIGGDARQLEIIRKLTEQQADIYLVGFDQLDHGFTGAVKCNIDEIPFQQIDSIILPVSATTGEGVVSTVFSNEEVVLKQDHLDRTPAHCVIFSGISNAYLENIAAQAKRKLVKLFERDDIAIYNSIPTVEGTIMLAIQHTDYTIHGSQVAVLGLGRTGMTIARTFAALGANVKVGARSSAHLARITEMGLVPFHTDELKEHVKDIDICINTIPSMILNQTVLSSMTPKTLILDLASRPGGTDFKYAEKQGIKALLAPGLPGIVAPKTAGQILANVLSKLLAEIQAEEGK
MLEKWEPIMAETRKLKYDEAALRTLTREDLDALEIGAGILGTGGGGNPYLGKLLALEAMKAGYEMKILATDAIEPDALCMSIGGIGAPVVGVERIREGREGLRCLRAMEELIRTPVDAIVCEEIGGSNSMNPLVTAALGGLPILDCDGMGRAFPEMQMTTFSIYGHSSTPSVMCDLHGNAVIFSHAVSEVWHERMARACVVAQGGGAMLATAPMQAHYVHQYGIPKTYTKAIAIGEAVIRARKQQEDPIAAVCALEGGRRIFNGKITDLKRHLRGGFAVGDLTLSGFDDCAGQTAGVAIQNEFLLFSRDGKVEVTVPDLIVLLDVDTGYPITTEVLRYGQRVAVIAIPCHDLLRSARALEVVGPAAFGYPDIPFSPLPLPVSKAALEHHHHHH
MQVDYQQLNGIALAYLGDAVYEPFIRQHLIESGFTKATKLHHHATHYVSAKAQAALIERMQAEEVLTPTEVDVFKRGRNAKSHTSAKHTDVVTYRISTGFEAVFGYLQLTQQADRIAELAQWCIKQVDEGRVSSVKLEHHHHHH

Soluble on expression in E. coli, not soluble:
MPLSAQQLAAQKNLSYVLAEKLAQRILKGDYAPGTILPGEIELGEQYGVSRTAVREAVKTLTAKGMVLPRPRIGTRVMPQGNWNFLDQELLTWWMTEENFHQVVEHFLVMRISLEPQACLLAATLGTPEQKARLNALMEEMVALKKHFKRERWIEVDMAWHEHIYEMSANPFLISFATLFHSVYHTYFTSITYNEVVKLDLHQAIVDAIADGDGERAFQACQALLIAPNERPDN
MQVNIILLAAGKGQRFQSSSPNKIGCATIKQLARINDKPLIVHSIDKLQPLLKNAYVHNFFVTLGANKNAIQTVLPQDISVIASQHWAEGMGHTLAESVHSIKATSSHVLVALADQALITTEHYQELLSASKEQPNKIIATLCEGQLMAPAIFPEKYFPLLVKIQGDKGAGKLLLQHAKKADAITCEDAKIDIDTFSDLERVRQHLEYALQDNQQSSL
KTKALIIEDKTLTDDQRKEQLLGVDTEYAKGIENIDAAKDAAGVDKAYSDGVRDILAQYKEGQNLNDRRNAAKEFL
MGSDKIHHHHHHMRDLNRLDDLLQGYEFMKKINDNWEIIENGLNLSDYEIEHLRKRITNLVIASGGNSSNEVVDLRVSKLQNKIFELAKDRLDSDLDSLADSLKNMMTRITSIELTNEQVLYMLNRLYGLDAGSIEVYVDSVSGDDTAGTGEKNKPFKTINKATMNFPRVFNSNTLRLWINPGRYDEDVIIPPLSGVTLYILSSNYETVDPAAGPTTCQIRSISVSDTSGYIYIAGIEQTNTAGTTKNYFIKAIRCGFVRITKCRMAFNTKAIDPFTAVFIDACSADVNGCYFASQNVDVRGYNTARVEVQNTTHGAKSAIGLYPQSADIFNLNSGTWEADTPTKLSGGGVVRT
MVAIFDICAYFNNSILVIVDIIMTELLEPAARASTQETLTDQIFKKIQSAIVSGEIAAGSKISEPELARVYGISRGPLREAIHRLEGQKLVERTAHVGARVVSLSHQQLRELYQIRENLEGLACRLAAQSIDKQQILNLRDVLHLHAQDPDFKEGKGYYLQEGQDDFHYCIIKNCGNKTLEKMLCDELYHLIRMYRVQYSKTPNRPHRALSEHLHILNAIAEGDTELAELLMRRHIAASYRNIEQHFI
NGSKTDLGLLSKNSADFLGSSKRSLAGFDTPFSPDNLQYLEKETDYDQNFKSFTEKFKDEKITNNQLGIVDIYNLFSGFHKSVKSTVDLMNQLQKQVEAANAIFPVDDAFVKLPKVPTELFKLVDDNVFPKLNPKGLNISDNIAALFERYNLKSIELKNFDLAFLRKADVIIKDKVRYNFEM
MDPLEALQKHVQRPEEFPLREVTVSGISYVAFGDYAYKKDTETSLQIYGKSDEFYSLESLVVFLKYSHENHGVYVKEAAAAGVRAVTRIDRKNVTEYLQGDRTDFPALMNQVNPLSLRQLLHSSEPEAKKPRLDGEAAGEPMDTSTSAEICSKIPIFLKINSIFFPDEPQESAVSAAKKEVEIRALNDNLTKDRIAEMRRKRQSHREKGIVTIETTFPQKPDFLIKKFQFFSESLSTLTSASLPKTRIHKTRENVMLGARDLSNVLDIITSAQRQWDLNEKKEKVAAVHATNLSKDQSGAAGGQQQRSGYSRYAQEAFAHEKTKEIQTEGSFIGSNFSSIKQGHHAVQKAPDAPPGRPPLAKPIQLLTSSTATSSGSSAAQNGSKRTSRSPIIIVPSAMNTMINLYNVRDILQNFSYVPVDQRRKETNKKPVDLAIQRQKNGVTYNIRVIDNAEKLANDDWDRVIAVFVMGVAWQFKGWKWNGNPTDIFTHIPAFHFHVDQDKPVAQVMQWNVHKIPVSATKRHMDKARFSQVWETIENFVRKNKPHLTARLGL
MAHHHHHHMRRWGAAGPLRSGLQLRQVASAARRRQPAQLKIPISDAPAHVKAMERPRSKLETPAAYSSFRSTETIEEFRENYKYLAAGERETSVTARVAGRITSLRDMGKMLFATVRSSGVDLQLVVHVGEHFTRDCLKQLRASLRVGDIVGAEGIPCRMQRGELSLAASRVEVLAPYVCRDQVVCPDLRGFTQLQDNDVRYRYRFVDMMTNRSVIDTIRKRHTVLQSLREYLDMRHFVEVETPILHTVASGANAKPFVTHHNANNADLFLRVAPELYLKQCVVGGLERVYEIGKVFRNEDADRSHNPEFTTCEFYAAYHTYEDLITMTEDIFRHLALRANGTTQLQIQCERAGITREIDLGATFRRISVYDEIQSASGVELPPPNELNTPKGLAYMSAIMLRHDIQFPAVRTAAKMFDKLIDFFITSHIVEPTFVMDHPIFMSPLAKEHSSRPGLAERFELFINGIEYCNAYSELNDPQEQCHRFQQQLIDRQGGDEEAMPLDETFLKSLQVGLPPTAGWGMGIDRVVMLLSGSSTIRDGIIFPLLRQDTRSHDCKRRHRVATFFDFNHQMALLCLSGVEQEMKRRGFPEASCAHIRELRQTIRDLGQRSGESDLTNFNCGEWWPGLTKTMIRLMCGRPRS
MGSDKIHHHHHHMTANEKKDLAHARVSASDGADAWVRFTVAGKRFDMPVVINASTRSLGASIIVNRMLSRRAPNDARPLMLVTQHITSRMADDLIAKGIPFLDTAGNAYLHEPEATIMIVGRDKPALNLKNPTSRSTTPKGLRVTFALLTQPGLVHAPYRTIADRSAVALNTVNLAMDDLIYRGLVVHKGARRVIADRRRLIEEWASLFPTRLRPKLSPCRFTSWTKESNWWSRPEILDIDARLGGEAGADILTHEIKPASLTIYSHRGITPRLMLNGMLRPDDRGNVEVLETFWPAKAEEGWNLPHREVVHPLLIYSDLITSGDDRNRAVAQTIYDRYLAKERA
MGSDKIHHHHHHMATTLFIQRGDIAAWLADTAATHTVYAPLRDKTGVRFHRLCAQDAAAQTQALELDRQAQTPPKNVLLPACETLLEFSYAKQEDGSTSLDVQPVMPQGAVLLFGPRPCDARAFTVFDRVYDAGRGKDPYYTARRAATVVASVVCTRPEQSCFCTAVGGAPDDTEGSDILFTPVQDGFIVRPLTQAAEAVLRHPLFTEAAHREEEAADVCAAARAAVPCAPADFTAAPEPVAALFDDMEFWQSVTAKCLSCGACTYLCPTCYCFNITDESNGLEGRRLRTWDNCMSFQFTLEGSGHNPRPTKAHRYRNRIGHKFSYYPRIHDGALSCVGCGRCISSCPVTMDIRRIVHSAMQRAQCATPEQAHE
